Data on two molecules can be found in patent US20090180952A1.

For assay [1], the target named is recombinant soluble urokinase plasminogen activator receptor (suPAR, aa 1-279) (UniProt Q03405). Kind of assay: direct binding assay (format and antigen form not stated).
Assay [2] deals with uPAR on the surface of HeLa cells, Q03405. Kind of assay: 125I-ATN-658 saturation binding to HeLa cells.
Chain of uPAR on the surface of HeLa cells, Q03405 (Q03405 23-305 limits assumed): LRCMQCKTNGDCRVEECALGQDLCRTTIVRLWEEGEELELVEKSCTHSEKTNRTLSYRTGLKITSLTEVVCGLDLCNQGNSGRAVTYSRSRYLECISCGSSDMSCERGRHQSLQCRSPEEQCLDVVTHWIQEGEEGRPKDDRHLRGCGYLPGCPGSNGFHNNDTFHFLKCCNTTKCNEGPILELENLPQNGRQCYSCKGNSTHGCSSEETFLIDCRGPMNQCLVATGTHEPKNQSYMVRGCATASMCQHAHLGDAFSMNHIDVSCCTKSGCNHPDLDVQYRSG

B1: mAb ATN-615 (antibody, IgG1, V domains shown)
VH: VKLQQSGPEVVKPGASVKISCKASGYSFTNFYIHWVKQRPGQGLEWIGWIFHGSDNTEYNEKFKDKATLTADTSSSTAYMQLSSLTSEDSAVYFCARWGPHWYFDVWGQGTTVTVSS
VL: DIVLTQSPDITAASLGQKVTITCSASSSVSYMHWYQQKSGTSPKPWIFEISKLASGVPARFSGSGSGTSYSLTISSMEAEDAAIYYCQQWNYPFTFGGGTKLEIKR
In the case of B1, the Kd – broadly, the concentration at which binding is half-saturated – in assay [1] came to 2 nM.

B2: mAb ATN-658 (antibody, IgG1, V domains shown)
VL: not shown
VH: VQLQESGPELVKTGASVKISCKASGYSFTSYYMHWVKQSHGKSLEWIGEINPYNGGASYNQKIKGRATFTVDTSSRTAYMQFNSLTSEDSAVYYCARSIYGHSVLDYWGQGTTVTVS
modifications: not checked
Turning to B2, the Kd in assay [2] was found to be 1.5 nM.
